From the RNAGym collection of RNA variant scans (doi:10.1073/pnas.2313332121)

B1: TPR t1 (parent)
chain: GACCAAUCUGCCCUCAGAGCUCGAGAACAUCUUCGGAUGCAGAGGAGGCAGGCUUCGGUGGCGCGAUAGCGCCAACGUCCUCAACCUCCAAUGCAUCCCACCACAUGAUGAUGCCUGAAGAGCCUUGGUUUUUUG

Variants of: B1
Experiment: polymerase ribozyme fitness, log enrichment relative to wild type (log ratio); higher = more active; in vitro selection for triplet polymerase activity
Outline: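 Frozen incubation at −7 °C formed the core of a single, triplicate in vitro selection round applied to PCR-built, transcribed mutant libraries of each subunit of a heterodimeric triplet polymerase ribozyme. Extended constructs were gel-excised, captured with streptavidin beads and amplified by RT-PCR, and input and output libraries were Illumina-sequenced with a filter of ≥10 input reads and ≥1 read per output. Fitness is the logarithm of genotype enrichment relative to wild-type enrichment, with inverse-variance-weighted replicate averaging, and the logarithm is base 2.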

Variant	polymerase ribozyme fitness (log ratio)
GACCAAUCUGUCCUCAGAGCUCGAGAACGUCUUCGGAUGCAGAGGAGGCAGGCUUCGGUGGCGCGAUAGCGCCAACUUCCUCAUCCUCAAAUGCAUCCCACCACAUGAUGAUGCCUGAAGAGCCUUGGUUUUUUG	-6.04
GACCAAUCUGUCCUCAGAGCUCGAGAACAUCUUCGGAUGCAGUGGAGGCAGGCUUCGGUGGCGCGAUAGCGCCAACGUCCUCAUCCUCCAAUGCAUCCCACCACAUGAUGAAGCCUGAAGAGCCUUGCUUUUUUG	-3.29
GACCAAUCUGUCCUCAGGGCUCGAGAACAUCUUCGGAUGCAGAGGAGGCUGGCUUCGGUGGCGCGAUAGCGCCAACGUCCUCAACCUCCAAUGCAACUCACCACAUGAUAAUGCCUGAAGGGCCUUGGUUUUUGG	-5.84
GACCAAUCUGUCCUCAGAGCUCGAGAACAUCUUCGGAUGCAGUGGAGGCAGGGUUCGGUGGCGCGAUAGCGCCAACGUCCUCAACCUCCAAUGCAUCCCACCACAUGAUGAUGCCUGAAAAGCCUUGGUUUUUUG	-1.5
GACCAAUCUGUCCUCAGAGCUCGAGAUCAUCUUCGGAUGCAGAGGAGGCAGGCUUCGGUGGCGCGAUAGCGUCAACGGCCUCAACCUCCAAUGCAUCCCACCACAUGAUGAUGCCUGAAGUGCCUUGGUUUUUUG	-0.173
GACCAAUCUGUCCUCAGAGCUCGUGAAGAUCUUCGGAUGCAGAGGAGGCAGGCUUCGGUGGGGCGAUAGCGCCAACGUCCUCGACCUCCAAUGCAUCCCACCACAUGAUGAUUCCUGAAGAGCCUUGGUUUUCUG	-6.38
GACCAAUCUGUCCUCAGAGCUCGAGAACCUCUUCGGAUGCAGAGGAGGCAGGCUUCGGUGGCGCGAUAGCGGCAACGUCCUCAACCUCCAAUGCAUCCCACCACAUGAUGAAGCCUGAAGAGCCUUGGUUUUUUU	-2.74
GACCAAUCUGUCCUCAGAGCUCGAGAGCAUCUUCGGAUGCAGAGGAGGCAGGCUUCGGUGGCGCGAUAGCGCCAACGUCCUCAACUUCCAAUGCAUCCCACCACAUGAUGAUGCUUGAAGAGCCUUGGUUUUUUG	-7.32
GACCAAUCUGUCCUCAGAGCUCGGGAACAUCUUCGGAUGCAGAGUAGGCAGGCUUCGGUGGCGCGAUAGCGCCAACGUCCUCAACCUCCAGUGCAUCCCACCACAUGAUGAUGCCUGAAGAGCCUUGGUUUUUUG	-5.06
GACCAAUCUGUCCUCAGAGCUCGAGAACAUCUUCGGUUGCAGAGGAGGAAGGCUUCGGUGGCGCGAUAGCGCCAACGUCCUCAACCUCCAAUGCAUCCCACCACAUGAUGAUGCCUGAAGAGUCUUGGUUUUUUG	0.929
GACCAAUCUGGCCUCAGAGCUCGAGAACAUCUUCGGAUGCAGAGGAGGCAGGCUUCGGUGGCGCGAUAGCGCCAACGUCCUCAACCUCCAAUGCAUCCCACCACAUGAACAUGCCUGAAGAGCCUUGGUUUUUUG	-4.59
GACCAAUCUGUCCUCAGAGCUCGAGAACAUCUUCGGAUGCAGGGGAGGCAGGCUUCGGUGGCACGAUAGCGCCAACGUCCUCAACCUCCAAUGCAUCCCACCACAUGAUGAUGCCUGAAGAGCCUUGGUUUUUUG	-5.66
GACCAAUCUGUCCUCAGAGCUCGAGAACAUCUUCGGAUGCAGCGGAGGCAGGCUUCGGUGGCGCGAUAGCGCCAAUGUCCUCUACCUCCGAUGCAUCCCACCACAUGAUGAUGCCUGAAGAGCCUUGGUUUUUUG	-3.5
GACCAAUCUGGCCUCAGAGCUCGAGAACAUCUUCGGAUGCAGAGGAGGCAGGCUUCGGUGGCGCGAUAGCGCCAACGUCCUCAACCUCCAAUGCAUCCCACCACAGGAUGAUGCCUGAAGAGCCUUGGUUUUUUG	-0.452
GACCAAUCUGUCCUCAGGGCUCGAGAACAUCUUCGGAUGCAGAGUAGGCAGUCUUCGGUGACGCGAUAGCGCCAACGUCCUCAACCUCCAAUGCAUCCCACCACAUGAUGGUGCCUGAAGAGCCUUGGUGUAUUG	-6.3
GACCAAUCUGUCCUCAGAGCUCGAGUACAUCUUCGGAUGCAGAGGAGGCAGGCGUCGGUGGCGCGAUAGCGCCAACGUCCUCAACCUCCAAUGCAUCCCACCACAUGAUGAUGCCUGAAGAGCCUUGGUUUUUUG	-2.81
GACCAAUCUGUCCUCUGAGCUCGAGAACAUCUUCGGAUGCAGAGGAGGCAGGCGUCGGCGGCGCGAUAGCGCCAACGUCCUCAACCUCCAAUGCAUCCCACCACAUGAUGAUGCCUGAAGAGCCUUGGUUUUUUG	-3.88
GACCAAUCUGGCCUCAGAGCUCGAGAACAUCUUCGGAUGCAGAGGAGGCAGGCUUCGGUGGCGCGAUAGCGCCAACGUCCUCAACCUCCAAUGCAUCCCACCACAUGAUGAUGCCUGAAGAGCCUUGGCUUUUUG	-0.495
GACCAAUCUGUCCUCAGAGCUCGAGUACAUCUUCGGAUGCAGAGGAGGCAGGCUUCGGUGGCGCGAUAGCGCCAACGUCCUCAACCUCCAAUGCAUCCCACCACAUGAUGAUGCCUGAAGAGCCUUGGUUUUUUG	-3.21
GACCAAUCUGUCCUCAGAGCUCGAGUACAUCUUCGGAUGCAGAGGAGGCAGGCUCCGGUGGCGCGAUAGCUCCAACGUCCUCAACCUCCAAUGCAUCCCACCACAUGAUGAUGCCUGAAGAGCCUUGGUUUUUUG	-3
GACCAAUCUGUCCUCAGCGCUCGAGAACAUCUUCGGAUGCAGAGGAGGCAGGCUUCGGUGGCGCGAUAGCGGCAACGUCCUCAACCUCCAAUGCAUCCCACCACAUGAUGAUGCCUGAAGAGCCUUAGUUUUUUG	-5.18
